We go through two molecules from paper PMC7271899, “Bayesian modeling reveals metabolite‐dependent ultrasensitivity in the cyanobacterial circadian clock” (Molecular Systems Biology, 2020).

Series [1] deals with the molecule itself. In words: SEC; Superdex 75 1660 prep grade column, step of the purification after Ni-NTA.
The next series has as its target T1, KaiA (Synechococcus elongatus, UniProt Q79PF6 1-284).
T1 construct: KaiA, circadian clock protein of Synechococcus elongatus; source: expressed and purified as previously described (Phong et al, 2013); anion exchange on HiTrap Q columns
T1 sequence (looked up): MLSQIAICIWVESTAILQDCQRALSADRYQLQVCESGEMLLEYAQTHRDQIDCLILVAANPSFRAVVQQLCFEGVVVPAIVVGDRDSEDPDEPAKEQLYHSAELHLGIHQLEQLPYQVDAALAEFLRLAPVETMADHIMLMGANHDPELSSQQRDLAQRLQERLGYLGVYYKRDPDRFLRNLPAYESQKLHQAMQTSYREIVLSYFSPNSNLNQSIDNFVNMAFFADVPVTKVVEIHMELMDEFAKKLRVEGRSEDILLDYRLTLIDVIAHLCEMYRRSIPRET
Briefly: co-IP; in vitro KaiABC clock reaction of purified proteins (KaiC present), time course; KaiB-FLAG precipitated with monoclonal anti-FLAG M2 antibody, eluted with 3xFLAG peptide; KaiA left in the supernatant quantified by SDS-PAGE (SYPRO Ruby) against 1.5 uM GFP as internal standard. To be noted: both partners purified.

B1: C-terminal domain of KaiA (residues 181-284) (domain or fragment, Synechococcus elongatus, UniProt Q79PF6 181-284, looked up)
chain: NLPAYESQKLHQAMQTSYREIVLSYFSPNSNLNQSIDNFVNMAFFADVPVTKVVEIHMELMDEFAKKLRVEGRSEDILLDYRLTLIDVIAHLCEMYRRSIPRET
notes: KaiA of Synechococcus elongatus, C-terminal domain, residues 181-284; Uniformly 15N labelled, grown in deuterated water, for NMR; Purified as described in Chang et al, 2011, 2012; Tseng et al, 2014; also called C-terminal KaiA; source: E. coli BL21(DE3), M9 media with 15N NH4Cl in 98% D2O, purified (Ni-NTA, SEC on Superdex 75)
The term stoichiometry N denotes the number of molecules, sites or subunits per partner or assembly. In the case of B1, the “stoichiometry N” value in series [1] came to 2.

B2: KaiB-FLAG (natural protein, Synechococcus elongatus, UniProt Q79PF5 1-102, looked up)
chain: MSPRKTYILKLYVAGNTPNSVRALKTLKNILEVEFQGVYALKVIDVLKNPQLAEEDKILATPTLAKVLPLPVRRIIGDLSDREKVLIGLDLLYGELQDSDDF
notes: KaiB, circadian clock protein of Synechococcus elongatus; also called FLAG-tagged KaiB; source: expressed and purified as previously described (Phong et al, 2013); anion exchange on HiTrap Q columns
For B2, the binding result with KaiA is reported as “binds”.
